Results as given in PMC6511879 (Nucleic Acids Research, 2019).

Tests used:
CtKti12NTD = target: T1, CtKti12NTD (Thermochaetoides thermophila, UniProt G0SHI1); assay: X-ray crystal structure, […] Å; format: binding; conditions: bound as ADP·AlF3 with Mg2+, transition state mimic; nucleotide site
T1 sequence (G0SHI1 2-252): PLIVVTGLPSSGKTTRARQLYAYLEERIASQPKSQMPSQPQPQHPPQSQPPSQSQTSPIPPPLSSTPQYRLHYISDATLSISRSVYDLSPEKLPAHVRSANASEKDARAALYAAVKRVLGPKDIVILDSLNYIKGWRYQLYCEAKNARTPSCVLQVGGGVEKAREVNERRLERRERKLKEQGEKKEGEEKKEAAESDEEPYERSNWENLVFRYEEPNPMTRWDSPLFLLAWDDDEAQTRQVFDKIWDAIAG

[1] = target: T2, CtKti12 (also ChKti12), full length (Thermochaetoides thermophila, UniProt G0SHI1); conditions: 1 mM ATP; 2 mM MgCl2; pH 7.5
T2 sequence (G0SHI1 1-378): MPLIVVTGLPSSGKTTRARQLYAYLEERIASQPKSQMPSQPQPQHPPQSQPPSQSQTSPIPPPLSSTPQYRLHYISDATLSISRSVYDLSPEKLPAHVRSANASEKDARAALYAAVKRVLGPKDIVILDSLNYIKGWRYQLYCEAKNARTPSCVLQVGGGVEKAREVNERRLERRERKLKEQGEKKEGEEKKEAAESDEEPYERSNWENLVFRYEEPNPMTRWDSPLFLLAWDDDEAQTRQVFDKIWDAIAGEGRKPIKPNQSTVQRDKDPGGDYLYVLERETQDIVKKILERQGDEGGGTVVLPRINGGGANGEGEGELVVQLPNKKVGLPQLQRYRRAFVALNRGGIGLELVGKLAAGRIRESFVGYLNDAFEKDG

[2] = target: T3, GST-ScElp1 first and second WD40 domains (aa 1-734) (Saccharomyces cerevisiae, UniProt Q06706 1-734); assay: pull-down
T3 sequence (looked up): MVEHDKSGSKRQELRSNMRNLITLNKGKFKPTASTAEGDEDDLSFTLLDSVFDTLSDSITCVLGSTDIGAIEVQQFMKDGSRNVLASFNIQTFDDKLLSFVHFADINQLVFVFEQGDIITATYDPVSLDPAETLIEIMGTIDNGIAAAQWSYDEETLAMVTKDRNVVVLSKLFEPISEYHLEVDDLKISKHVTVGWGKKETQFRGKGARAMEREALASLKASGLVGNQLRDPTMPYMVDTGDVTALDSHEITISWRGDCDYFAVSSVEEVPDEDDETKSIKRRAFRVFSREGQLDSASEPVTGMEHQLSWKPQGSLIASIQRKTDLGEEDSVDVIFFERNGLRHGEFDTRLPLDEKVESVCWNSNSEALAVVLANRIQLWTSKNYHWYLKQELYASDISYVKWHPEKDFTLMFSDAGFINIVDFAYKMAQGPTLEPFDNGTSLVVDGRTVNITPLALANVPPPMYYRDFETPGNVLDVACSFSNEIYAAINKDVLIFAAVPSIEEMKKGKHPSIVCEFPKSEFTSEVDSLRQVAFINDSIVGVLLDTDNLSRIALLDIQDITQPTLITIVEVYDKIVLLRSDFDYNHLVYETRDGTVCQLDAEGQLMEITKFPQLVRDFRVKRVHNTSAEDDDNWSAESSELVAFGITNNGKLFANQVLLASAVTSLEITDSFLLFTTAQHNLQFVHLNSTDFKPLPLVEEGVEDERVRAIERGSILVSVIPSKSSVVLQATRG

[3] = target: T4, GST-ScElp1 first WD40 domain (aa 42-431) (Saccharomyces cerevisiae, UniProt Q06706 42-431); assay: pull-down
T4 sequence (looked up): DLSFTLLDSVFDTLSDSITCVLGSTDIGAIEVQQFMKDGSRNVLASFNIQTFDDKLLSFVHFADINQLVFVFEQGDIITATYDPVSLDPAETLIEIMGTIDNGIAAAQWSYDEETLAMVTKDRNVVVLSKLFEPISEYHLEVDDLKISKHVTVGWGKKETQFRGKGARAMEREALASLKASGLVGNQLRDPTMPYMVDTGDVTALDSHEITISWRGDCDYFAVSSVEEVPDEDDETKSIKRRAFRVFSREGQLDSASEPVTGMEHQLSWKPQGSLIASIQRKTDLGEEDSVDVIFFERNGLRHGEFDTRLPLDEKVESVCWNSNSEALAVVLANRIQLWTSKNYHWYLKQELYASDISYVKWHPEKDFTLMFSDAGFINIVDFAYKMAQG

Full length GST-ScElp1 = target: T5, Full length GST-ScElp1 (Saccharomyces cerevisiae, UniProt Q06706 1-1349); assay: pull-down
T5 sequence (looked up): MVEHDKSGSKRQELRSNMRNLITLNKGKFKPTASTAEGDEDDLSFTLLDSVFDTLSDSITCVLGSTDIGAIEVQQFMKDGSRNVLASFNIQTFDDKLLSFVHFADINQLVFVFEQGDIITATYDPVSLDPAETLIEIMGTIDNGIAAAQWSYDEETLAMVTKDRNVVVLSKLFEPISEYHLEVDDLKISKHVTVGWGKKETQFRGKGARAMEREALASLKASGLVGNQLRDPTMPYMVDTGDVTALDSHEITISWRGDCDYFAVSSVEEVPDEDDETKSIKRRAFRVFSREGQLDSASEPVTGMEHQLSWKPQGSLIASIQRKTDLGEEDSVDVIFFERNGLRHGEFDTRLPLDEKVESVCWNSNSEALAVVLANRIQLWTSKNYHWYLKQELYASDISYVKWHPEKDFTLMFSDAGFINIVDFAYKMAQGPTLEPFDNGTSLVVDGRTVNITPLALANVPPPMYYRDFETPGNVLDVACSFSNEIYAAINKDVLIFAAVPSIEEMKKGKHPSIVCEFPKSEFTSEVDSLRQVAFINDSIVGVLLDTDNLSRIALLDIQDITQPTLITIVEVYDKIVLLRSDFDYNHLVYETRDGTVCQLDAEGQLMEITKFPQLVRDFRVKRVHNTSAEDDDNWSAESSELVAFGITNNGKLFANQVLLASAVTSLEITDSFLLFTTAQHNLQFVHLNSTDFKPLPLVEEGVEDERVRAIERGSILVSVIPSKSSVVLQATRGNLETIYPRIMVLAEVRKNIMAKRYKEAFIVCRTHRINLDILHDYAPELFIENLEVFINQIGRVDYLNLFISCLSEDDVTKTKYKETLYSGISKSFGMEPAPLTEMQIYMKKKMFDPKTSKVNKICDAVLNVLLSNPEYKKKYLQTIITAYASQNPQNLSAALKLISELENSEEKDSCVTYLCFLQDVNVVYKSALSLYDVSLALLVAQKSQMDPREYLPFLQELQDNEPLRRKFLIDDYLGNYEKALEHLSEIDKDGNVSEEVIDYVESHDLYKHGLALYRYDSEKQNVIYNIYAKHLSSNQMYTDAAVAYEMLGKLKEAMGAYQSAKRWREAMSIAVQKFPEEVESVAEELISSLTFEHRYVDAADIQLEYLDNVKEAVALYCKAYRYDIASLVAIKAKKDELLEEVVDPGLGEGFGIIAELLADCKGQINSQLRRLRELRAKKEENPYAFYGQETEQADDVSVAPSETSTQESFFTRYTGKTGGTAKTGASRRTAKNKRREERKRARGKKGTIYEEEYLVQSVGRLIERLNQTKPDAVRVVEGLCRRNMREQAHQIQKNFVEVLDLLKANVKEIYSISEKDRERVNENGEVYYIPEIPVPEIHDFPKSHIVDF

Nc1ncnc2c1ncn2[C@@H]1O[C@H](COP(=O)(O)OP(=O)(O)O)[C@@H](O)[C@H]1O [ADP]
X-ray crystal structure, 2.4 Å (CtKti12NTD): We solved the structure of CtKti12NTD in complex with ADP·AlF3

Nc1ncnc2c1ncn2[C@@H]1O[C@H](COP(=O)(O)OP(=O)(O)OP(=O)(O)O)[C@@H](O)[C@H]1O [ATP]
dTm [1]: addition of ATP contributed to an increased thermostability of CtKti12 and ScKti12 in vitro

B1: ScKti12-6xHis (Saccharomyces cerevisiae Kti12, wild type) (natural protein)
chain: MPLVLFTGYPCSGKTTLAKHLVQLLQSKIDATPSLSKYSITYHSDESLGIKHSDYITSQDERKLRSEIISAVKRDLSKNKIVIVDSLNYIKGFRYQLHCEVKNLSTTFCVIQTLCPPETIFEWNKTSNPNPWEPELLNQLIQRYEEPNSSNRWDSPLFAILTPQDNITDYIDDICKVVFQTSKSAKNSGHNDPLSKGLQKPNSATVLKPASQSNFIQVLDIETSKIIKTIMNHIKSLTSIGGVSNGTRVIVSEGITDINDDGCFFVDLPIGNVVTLAQLQRLKRQFINFNKLRDIDQDRIGPLFADYLNKNLN
binding result [2]: binds
binding result [3]: binds
binding result (Full length GST-ScElp1): binds
